Tests used:
phosphorylated opsin [1] = target: T1, phosphorylated opsin (bovine, UniProt P02699 1-348, phosphorylated on the C-terminus by endogenous GRK1 (sites not given); no retinal (apo-protein)); experiment: site-directed steady-state fluorescence; 1 uM labelled arrestin with 6 uM Ops-P in ROS membranes, 50 mM HEPES pH 8, low salt, 20 °C; conditions: one partner purified
T1 construct: bovine opsin (apo-protein of rhodopsin), endogenous in ROS membranes; in isolated, washed ROS disc membranes, not on whole cells; also called Ops-P; OpsP
T1 sequence (P02699 whole entry): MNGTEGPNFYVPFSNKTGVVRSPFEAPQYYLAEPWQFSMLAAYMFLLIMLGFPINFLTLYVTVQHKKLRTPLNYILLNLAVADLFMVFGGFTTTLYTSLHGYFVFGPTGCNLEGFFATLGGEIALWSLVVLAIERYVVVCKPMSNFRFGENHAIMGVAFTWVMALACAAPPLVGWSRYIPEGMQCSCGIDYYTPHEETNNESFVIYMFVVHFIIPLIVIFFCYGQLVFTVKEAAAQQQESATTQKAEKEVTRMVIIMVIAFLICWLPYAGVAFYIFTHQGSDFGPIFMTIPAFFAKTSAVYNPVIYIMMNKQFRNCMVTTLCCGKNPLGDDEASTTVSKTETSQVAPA

phosphorylated opsin [2] = target: T1, phosphorylated opsin; experiment: site-directed steady-state fluorescence; 1 uM labelled arrestin with 6 uM receptor in ROS membranes, 50 mM HEPES pH 7, low salt, 20 °C; conditions: one partner purified

Row | fluorescence increase relative to that with Meta II-P (phosphorylated opsin [1]) [%] | fluorescence increase relative to that with Meta II-P (phosphorylated opsin [2]) [%] | fluorescence change relative to that with Meta II-P (phosphorylated opsin [1]) [%] | Binder
1 | ~18 | ~45 | – | arrestin I72NBD (natural protein, bovine, UniProt P08168 1-404, looked up, NBD fluorophore (IANBD) on the cysteine at site 72, recombinant bovine arrestin-1 mutant; also called arrestin-1 C63A, C128S, C143A, W194F, I72C labelled with IANBD; source: E. coli, purified) MKANKPAPNHVIFKKISRDKSVTIYLGKRDYIDHVERVEPVDGVVLVDPELVKGKRVYVSLTAAFRYGQEDCDVMGLSFRRDLYFSQVQVFPPVGASGATTRLQESLIKKLGANTYPFLLTFPDYLPSSVMLQPAPQDVGKSAGVDFEIKAFATHSTDVEEDKIPKKSSVRLLIRKVQHAPRDMGPQPRAEASFQFFMSDKPLRLAVSLSKEIYYHGEPIPVTVAVTNSTEKTVKKIKVLVEQVTNVVLYSSDYYIKTVAAEEAQEKVPPNSSLTKTLTLVPLLANNRERRGIALDGKIKHEDTNLASSTIIKEGIDKTVMGILVSYQIKVKLTVSGLLGELTSSEVATEVPFRLMHPQPEDPDTAKESFQDENFVFEEFARQNLKDAGEYKEEKTDQEAAMDE
2 | – | – | ~38 | arrestin I299B/L173W (natural protein, bovine, UniProt P08168 1-404, looked up, bimane fluorophore (monobromobimane) on the cysteine at site 299, recombinant bovine arrestin-1 mutant; also called arrestin-1 C63A, C128S, C143A, W194F, L173W, I299C labelled with monobromobimane; source: E. coli, purified) MKANKPAPNHVIFKKISRDKSVTIYLGKRDYIDHVERVEPVDGVVLVDPELVKGKRVYVSLTAAFRYGQEDIDVMGLSFRRDLYFSQVQVFPPVGASGATTRLQESLIKKLGANTYPFLLTFPDYLPSSVMLQPAPQDVGKSAGVDFEIKAFATHSTDVEEDKIPKKSSVRLWIRKVQHAPRDMGPQPRAEASFQFFMSDKPLRLAVSLSKEIYYHGEPIPVTVAVTNSTEKTVKKIKVLVEQVTNVVLYSSDYYIKTVAAEEAQEKVPPNSSLTKTLTLVPLLANNRERRGIALDGKCKHEDTNLASSTIIKEGIDKTVMGILVSYQIKVKLTVSGLLGELTSSEVATEVPFRLMHPQPEDPDTAKESFQDENFVFEEFARQNLKDAGEYKEEKTDQEAAMDE

— PMC4923902 (Scientific Reports, 2016)
